# Measurements as given in PMC4400361, “Oligomerization of the Polycystin-2 C-terminal Tail and Effects on Its Ca^2+-binding Properties*” (The Journal of Biological Chemistry, 2015).
# B1: human polycystin-2 C-terminal construct, which includes the full-length cytoplasmic tail (HPC2 Cterm) (domain or fragment, UniProt Q13563 704-968, looked up)
# chain: IRKGYHKALVKLKLKKNTVDDISESLRQGGGKLNFDELRQDLKGKGHTDAEIEAIFTKYDQDGDQELTEHEHQQMRDDLEKEREDLDLDHSSLPRPMSSRSFPRSLDDSEEDDDEDSGHSSRRRGSISSGVSYEEFQVLVRRVDRMEHSIGSIVSKIDAVIVKLEIMERAKLKRREVLGRLLDGVAEDERLGRDSEIHREQMERLVREELERWESDDAASQISHGLGTPVGLNGQPRPRSSRPSSSQSTEGMEGAGGNGSSNVHV
# notes: polycystin-2 (PC2), human, residues I704-V968, numbered on full-length human PC2; Printed monomer mass 32.2 kDa; also called C-terminal cytoplasmic tail of human PC2; HPC Cterm
# Experiments:
# [1] = biological target: the molecule itself; assay: SEC-MALS; Superdex 200 10/30 GL, SEC-UV/LS/RI; Ca2+-free apo state, no added CaCl2, 1 mM EDTA; 20 mM imidazole in the buffer for HPC2 Cterm; three injected amounts
# [2] = biological target: the molecule itself; assay: SEC-MALS; Superdex 200 10/30 GL, SEC-UV/LS/RI; Ca2+-bound holo state, 20 mM CaCl2 in the buffer; 20 mM imidazole in the buffer for HPC2 Cterm; three injected amounts for HPC2 Cterm and SUPC2 Ccore
protein,measurement,setting,value
B1,stoichiometry N,[1],3
same,stoichiometry N,[2],3
